Values joined by “and” are separate entries in the source; they are usually repeats but may differ in a detail not shown here. Identical values can stand only once.
Biological target: hamster ACE2 ectodomain with human IgG1 Fc tag (hamster)
Test: BLI

Substance: SARS-CoV-2 spike protein of Alpha (B.1.1.7), S^Alpha, recombinant trimeric ectodomain (from UniProt P0DTC2 14-1208) (domain or fragment)
- kon: 111000 M⁻¹ s⁻¹ and 90700 M⁻¹ s⁻¹ and 98000 M⁻¹ s⁻¹
